Reference: IntAct's records for PubMed 29374162

B1: Interleukin-3 receptor subunit alpha (Homo sapiens), P26951-1 (parent)
chain: MVLLWLTLLLIALPCLLQTKEDPNPPITNLRMKAKAQQLTWDLNRNVTDIECVKDADYSMPAVNNSYCQFGAISLCEVTNYTVRVANPPFSTWILFPENSGKPWAGAENLTCWIHDVDFLSCSWAVGPGAPADVQYDLYLNVANRRQQYECLHYKTDAQGTRIGCRFDDISRLSSGSQSSHILVRGRSAAFGIPCTDKFVVFSQIEILTPPNMTAKCNKTHSFMHWKMRSHFNRKFRYELQIQKRMQPVITEQVRDRTSFQLLNPGTYTVQIRARERVYEFLSAWSTPQRFECDQEEGANTRAWRTSLLIALGTLLALVCVFVICRRYLVMQRLFPRIPHMKDPIGDSFQNDKLVVWEAGKAGLEECLVTEVQVVQKT
partner: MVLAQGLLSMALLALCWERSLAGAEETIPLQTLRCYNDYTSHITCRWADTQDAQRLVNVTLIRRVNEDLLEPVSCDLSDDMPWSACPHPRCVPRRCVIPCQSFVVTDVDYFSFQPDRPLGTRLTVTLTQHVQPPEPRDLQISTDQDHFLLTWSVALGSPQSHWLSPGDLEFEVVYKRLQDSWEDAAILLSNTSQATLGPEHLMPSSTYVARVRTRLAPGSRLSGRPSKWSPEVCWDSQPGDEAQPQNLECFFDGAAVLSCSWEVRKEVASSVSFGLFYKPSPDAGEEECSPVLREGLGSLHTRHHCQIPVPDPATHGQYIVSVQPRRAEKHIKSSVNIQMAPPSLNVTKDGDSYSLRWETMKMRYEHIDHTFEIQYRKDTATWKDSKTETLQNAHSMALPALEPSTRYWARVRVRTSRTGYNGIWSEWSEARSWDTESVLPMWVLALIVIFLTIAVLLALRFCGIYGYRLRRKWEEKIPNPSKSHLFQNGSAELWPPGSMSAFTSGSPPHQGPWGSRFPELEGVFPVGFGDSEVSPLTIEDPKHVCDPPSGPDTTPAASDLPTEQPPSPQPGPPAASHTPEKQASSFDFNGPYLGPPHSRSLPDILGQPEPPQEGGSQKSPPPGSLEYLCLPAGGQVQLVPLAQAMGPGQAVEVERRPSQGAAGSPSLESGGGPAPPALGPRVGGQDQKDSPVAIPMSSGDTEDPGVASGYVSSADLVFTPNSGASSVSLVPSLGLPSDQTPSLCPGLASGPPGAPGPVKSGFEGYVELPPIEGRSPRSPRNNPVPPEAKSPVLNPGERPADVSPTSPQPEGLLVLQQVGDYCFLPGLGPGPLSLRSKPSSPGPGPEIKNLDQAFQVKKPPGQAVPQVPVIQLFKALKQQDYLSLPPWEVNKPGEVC

Variants of: B1
Settings: with il3rb_human CSF2RB

Variant | effect of a mutation on the interaction
MVLLWLTLLLIALPCLLQTKEDPNPPITNLRMKAKAQQLTWDLNRNVTDIECVKDADYSMPAVNNSYCQFGAISLAEVTNYTVRVANPPFSTWILFPENSGKPWAGAENLTCWIHDVDFLSCSWAVGPGAPADVQYDLYLNVANRRQQYECLHYKTDAQGTRIGCRFDDISRLSSGSQSSHILVRGRSAAFGIPATDKFVVFSQIEILTPPNMTAKCNKTHSFMHWKMRSHFNRKFRYELQIQKRMQPVITEQVRDRTSFQLLNPGTYTVQIRARERVYEFLSAWSTPQRFECDQEEGANTRAWRTSLLIALGTLLALVCVFVICRRYLVMQRLFPRIPHMKDPIGDSFQNDKLVVWEAGKAGLEECLVTEVQVVQKT [C76A;C195A] | with no effect
MVLLWLTLLLIALPCLLQTKEDPNPPITNLRMKAKAQQLTWDLNRNVTDIECVKDADYSMPAVNNSYCQFGAISLCEVTNYTVRVANPPFSTWILFPENSGKPWAGAENLTCWIHDVDFLSCSWAVGPGAPADVQYDLYLNVANRRQQYECLHYKTDAQGTRIGCRFDDISRLSSGSQSSHILVRGRSAAFGIPCTLKFVVFSQIEILTPPNMTAKCNKTHSFMHWKMRSHFNRKFRYELQIQKRMQPVITEQVRDRTSFQLLNPGTYTVQIRARERVYEFLSAWSTPQRFECDQEEGANTRAWRTSLLIALGTLLALVCVFVICRRYLVMQRLFPRIPHMKDPIGDSFQNDKLVVWEAGKAGLEECLVTEVQVVQKT [D197L] | with no effect
